B1: PAN2-PAN3 deadenylation complex catalytic subunit pan2 (Neurospora crassa (strain ATCC 24698 / 74-OR23-1A / CBS 708.71 / DSM 1257 / FGSC 987)), P0C581 (parent)
chain: MDSRDWTQLGCVAYPSPIHPDYHAGPASTIAFDNQDELLWIGTQKGFAGSFIGRELKRFTAFRIHPETDGPLRQFLFVDKGVIFLGSRSVYMAARSGVPIWSIRHESMQDLRAMSFTSKGTSEILVAGWQNKMLVIDVNKGEVVKELPTQDQYSFLKMSRYICAATNKGTVNILDPITFTIKKQWQAHGAFINDLDTSNDFIVTCGGSHRQTHNTPAILDPYVKVFDLKNMSAMNPVPFAPLAAHVRMHPRMLTTAIVVNQAGQIHVTDLLNPSNSQVCYTQPQGVVLHFDVSRTGEGKALADNKHNTYVWGSPNKIQFTEIGIPPRLPDPPQPSLLPPDPDMLEELPLSRIGLPYYREQLFSALPPDIISDVGAPPQQIDPNILSTLTKTDWGYIGPNKTGLQRNQYMDTRSTMKTSNTIRAPKFLSEKARESQTGSEDNTLATNETAMMTPNNDHWSLRPEAPPEYRICEIKYSKFGVDDFDFGFFNNTPYPGLENNITNSYANSLLQVMHYTPLLRNMALQHAATACLADPCLLCELGYVFDMLQKGEGPSCHATNMLRALNHTSNASVSGVLEDIAKDKNPSTLVKNLTMFLFDKISQDYKGTPPISTELERTLFKLNQPPNPLDLVKRLLETDARYQIKCMHCQHVSPRTATTFVNKLCYPAAKPNIRGMKAQRITFSQVLKAGLENEAVNKGYCTKCQRYQNLDQRKIIFNIPAVLALCTEITTAEHRKLWSTPGWLPEEIGIIVDQGHVYCYEGDDLKLHLNRGIHNITVYSLVGTVVNVETKSPQKSHLVATVNVGRAEPESKDQDRWHLFNDFSVRGISKVEALTFNAAWKMPVVVMFQVKAANHRFNMDWKTRLDTSVLFRDNNPHALKTYELLDRETEIPGPDTVIAIDTEFIRLKEREIHIDEDGKSKTIRPISHAIARASVVRGQGSREGVAFIDDYIHIKETIVDYLTEWSGITPTDLDPINSQRNLVSPKTAYKKLWVLVNLGCKFLGHGLSQDFRVINIQVPRNQVIDTSIIFMKPPSQRKISLAFLAWYLLKEDIQQNTHDSIEDAQTALKLYRKYEEFMANGSFHDVLEALYKKGKTLNFKPPRISTGAAKDAGFGAVHRVGTPPVPAPGTTEGSFEISNSSTATTGGSALSATGGMGSASASSSMPSTPVRKPIGLGGPFTVAGVVKPSPATSLDNFGAGAVGTGITTAAATMGGGYGGYGTDGAYWGGPNDMAPTSMIGGSAFIPAKFPPGPPETRGFIPYRPQVLLAEREAAAAAAAAAAAAAANNDVGGRGGVACGNGGAGGEQGKQE
partner: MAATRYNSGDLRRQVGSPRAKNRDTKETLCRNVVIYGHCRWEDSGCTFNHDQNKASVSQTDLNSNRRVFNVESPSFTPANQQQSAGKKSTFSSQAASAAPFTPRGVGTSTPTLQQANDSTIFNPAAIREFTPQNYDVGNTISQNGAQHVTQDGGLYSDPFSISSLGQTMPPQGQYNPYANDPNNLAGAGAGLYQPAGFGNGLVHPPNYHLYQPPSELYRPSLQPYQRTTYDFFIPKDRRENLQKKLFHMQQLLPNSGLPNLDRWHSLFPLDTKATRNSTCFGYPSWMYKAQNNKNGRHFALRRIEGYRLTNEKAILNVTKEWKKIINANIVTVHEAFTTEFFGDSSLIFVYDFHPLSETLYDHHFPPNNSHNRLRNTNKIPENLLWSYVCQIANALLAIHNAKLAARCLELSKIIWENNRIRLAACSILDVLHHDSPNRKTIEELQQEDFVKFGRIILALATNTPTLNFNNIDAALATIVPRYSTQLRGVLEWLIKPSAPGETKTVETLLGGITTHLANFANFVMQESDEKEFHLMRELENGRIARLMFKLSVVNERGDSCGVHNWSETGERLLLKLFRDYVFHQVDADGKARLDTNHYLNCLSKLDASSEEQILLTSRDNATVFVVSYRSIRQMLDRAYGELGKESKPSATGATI
B2: PAN2-PAN3 deadenylation complex subunit PAN3 (Drosophila melanogaster (Fruit fly)), Q95RR8 (parent)
chain: MCSTYGLLSFEFSDTAAMDPIFFSPTNGIPSESKLATYMNRQNVATPSGYGLNNGFSLLNLDSPLNKKSQVTPQSPEFIPTRLGSTPNFYAPYHNAPMQLSNGLNGVNGLTAAAAAAAAAAAAAAAAVPSSTSSASSASVTISKTANGGASMLALQKTASIASVTIAQQQPQHPQKQQQHPPSVGGGAVSAASAPIAISGAPPNPAAAPFVSSMSAQTPLKGRGAMMRQESPTAAMISGAGPGEKSPPHGMTPHGASPIPSALPTSVHQENVGGTIYFYPTANAQNSQPVVNSMVVDGTHPALHGVSAVAPMSAGVPAAMMYTGHVYPGPSSNVVTMQPKTLLESAFFMPDEMRAEVLARNEISNLIMDAAEAAQHALPLEVENYHALYPLEPPAQPLHAKLTFPATTYRATHNTTGYKYCLRRIHGFRLQSTKCMTLVEMWKKLQHTNVVQLREVFTTKAFGDNSLVLVYDYHPGSQTLLAKYFTPAPETNGYTDPFQGEARPFSHKSNMQRTSNGPLLPEATIWSIIMQLTAGLKAIHHAGLACKVLDPTKIIVTGKRVRFSSCCISDITQFDPNASNPLALVNMHQQDDLTALGRLVLALACRCLQSVQRDNVQSSIDMVTRNYSTDLRNFIVYLFTTNNRRSVTDLMPMIGARFYTQLDALQSKIDMQEDELAKEMENGRLYRILVKLNSINERPDFNLDCTWSETGDRYMLKLFRDYLFHSVTEDGRPWLDHAHIVQCLNKLDAGSIERVQLMSRDEQSVLIVSYAELKNCLENAFSELMSSAAN
B3: PAN2-PAN3 deadenylation complex subunit pan3 (Neurospora crassa (strain ATCC 24698 / 74-OR23-1A / CBS 708.71 / DSM 1257 / FGSC 987)), Q7SDP4 (parent)
chain: B1 partner
partner: B1 chain

One test covers variants of B1. The following applies: with pan3_neucr par-2, Q7SDP4.
For the variant P99R, the “effect of a mutation on the interaction” value is given as “disrupting interaction strength”.
Regarding T60R, the “effect of a mutation on the interaction” value was “disrupting interaction strength”.
In the case of F62E, the “effect of a mutation on the interaction” value was “disrupting interaction strength”.
With G97E, the “effect of a mutation on the interaction” value is on record as “disrupting interaction strength”.

A further test covers variants of B2. Particulars: with pan2_drome PAN2, A1Z7K9.
pan2_drome PAN2, A1Z7K9, sequence (A1Z7K9 whole entry): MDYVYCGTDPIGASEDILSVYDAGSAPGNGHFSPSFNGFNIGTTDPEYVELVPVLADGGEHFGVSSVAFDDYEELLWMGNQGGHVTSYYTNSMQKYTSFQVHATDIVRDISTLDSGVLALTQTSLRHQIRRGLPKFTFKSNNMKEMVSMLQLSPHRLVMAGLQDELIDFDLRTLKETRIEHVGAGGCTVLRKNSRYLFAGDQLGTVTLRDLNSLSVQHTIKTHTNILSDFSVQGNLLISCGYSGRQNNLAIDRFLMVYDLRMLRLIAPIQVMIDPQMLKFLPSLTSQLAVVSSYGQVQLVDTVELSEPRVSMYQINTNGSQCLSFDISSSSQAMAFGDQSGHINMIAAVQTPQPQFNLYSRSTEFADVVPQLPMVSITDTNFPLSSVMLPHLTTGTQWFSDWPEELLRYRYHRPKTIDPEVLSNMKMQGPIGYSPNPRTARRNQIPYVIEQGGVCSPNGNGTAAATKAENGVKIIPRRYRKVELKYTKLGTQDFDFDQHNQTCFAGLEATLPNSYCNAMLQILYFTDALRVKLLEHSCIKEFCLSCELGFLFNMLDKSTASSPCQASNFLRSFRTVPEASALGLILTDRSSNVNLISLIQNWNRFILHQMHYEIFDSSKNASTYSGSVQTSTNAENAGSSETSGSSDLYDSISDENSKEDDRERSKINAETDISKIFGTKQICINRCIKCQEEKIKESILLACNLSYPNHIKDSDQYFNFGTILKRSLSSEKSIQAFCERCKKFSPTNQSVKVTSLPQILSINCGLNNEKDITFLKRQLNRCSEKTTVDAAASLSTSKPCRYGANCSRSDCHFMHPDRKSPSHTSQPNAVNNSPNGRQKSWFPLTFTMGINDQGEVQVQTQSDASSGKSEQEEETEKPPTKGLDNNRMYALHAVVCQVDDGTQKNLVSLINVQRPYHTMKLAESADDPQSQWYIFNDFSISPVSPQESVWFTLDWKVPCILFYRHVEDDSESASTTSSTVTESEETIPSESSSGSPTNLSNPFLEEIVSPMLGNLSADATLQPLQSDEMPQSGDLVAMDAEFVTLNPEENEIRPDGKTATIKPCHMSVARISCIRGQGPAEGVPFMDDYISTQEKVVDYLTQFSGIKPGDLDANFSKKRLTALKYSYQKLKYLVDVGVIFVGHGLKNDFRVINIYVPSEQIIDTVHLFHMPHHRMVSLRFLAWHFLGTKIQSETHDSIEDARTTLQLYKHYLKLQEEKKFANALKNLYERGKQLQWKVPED
On to Y722A;H739A;R754A, for which the “effect of a mutation on the interaction” value is “decreasing interaction strength”.
Consider W707A;G711E;Y722A;H739A;R754A, for which the “effect of a mutation on the interaction” value is “decreasing interaction strength”.

The variants in another test derive from B3. Particulars: with pan2_neucr par-1, P0C581.
With V627E, the “effect of a mutation on the interaction” value is listed as “disrupting interaction strength”.

Source of the values: IntAct's records for PubMed 24880343.
